Legend:
[1] = target: Lysyl oxidase-like 2 (LOXL2), full-length, endogenous in human aortic smooth muscle cells (human (endogenous in HASMC)) (UniProt Q9Y4K0); assay: proximity ligation; Duolink In Situ Red mouse/rabbit kit on HASMC on coverslips, fixed but not permeabilised; cells untreated, with FXa, or with FXa + rivaroxaban for 24 h; signal as mean gray value, % of average of controls
[2] = target: FXa-processed LOXL2, endogenous in human aortic smooth muscle cells treated with FXa (human (endogenous in HASMC)) (UniProt Q9Y4K0); assay: as above

increase of PLA signal with rivaroxaban (full-length LOXL2 accumulated) [1]: 80 % (increase) | decrease of PLA signal with FXa against controls [2]: 50 % (decrease)
Substance: Type IV collagen, endogenous in the matrix of human aortic smooth muscle cells (complex)
